Luciferase activity data for one substance are collected here from patent US5547932.

The assay has as its target transferrin receptor on NIH3T3 cells and on C2C12 and G8 myoblasts and myotubes (Mus musculus (Mouse)) (UniProt Q62351).

As to “human transferrin-polylysine conjugate (from UniProt P02787) (ligand)”, the luciferase activity is < 1 log.
